Measured values as given in patent publication US20100325744A1 (published 2010).
Substitutions are numbered along the chain they refer to. Numbers in names are those of the source.

B1: L236V (protein)
chain: ASTKGPSVFPLAPCSRSTSESTAALGCLVKDYFPEPVTVSWNSGALTSGVHTFPAVLQSSGLYSLSSVVTVPSSSLGTKTYTCNVDHKPSNTKVDKRVAPEFLGGPSVFLFPPKPKDTLMISRTPEVTCVVVDVSQEDPEVQFNWYVDGVEVHNAKTKPREEQFNSTYRVVSVLTVLHQDWLNGKEYKCKVSNKGLPSSIEKTISKAKGQPREPQVYTLPPSQEEMTKNQVSLTCVVKGFYPSDIAVEWESNGQPENNYKTTPPVLDSDGSFFLYSRLTVDKSRWQEGNVFSCSVMHEALHNHYTQKSLSLSLGK
B2: Y275A (protein)
chain: B1 chain with V236L, Y275A
B3: F273A (protein)
chain: B1 chain with V236L, F273A
B4: WT (protein)
chain: B1 chain with V236L

Target: the molecule itself
Assay: monomer to dimer conversion (% monomer vs concentration); self-association

Protein | EC50
B1 | 2160 nM
B2 | 2190 nM
B3 | 3060 nM
B4 | 39 nM
